Here are results for one molecule from article PMC8627417 (Journal for Immunotherapy of Cancer, 2021).

This test addresses receptor of advanced glycation end products (RAGE) (UniProt Q15109 23-404).

receptor of advanced glycation end products (RAGE), sequence (Q15109 23-404): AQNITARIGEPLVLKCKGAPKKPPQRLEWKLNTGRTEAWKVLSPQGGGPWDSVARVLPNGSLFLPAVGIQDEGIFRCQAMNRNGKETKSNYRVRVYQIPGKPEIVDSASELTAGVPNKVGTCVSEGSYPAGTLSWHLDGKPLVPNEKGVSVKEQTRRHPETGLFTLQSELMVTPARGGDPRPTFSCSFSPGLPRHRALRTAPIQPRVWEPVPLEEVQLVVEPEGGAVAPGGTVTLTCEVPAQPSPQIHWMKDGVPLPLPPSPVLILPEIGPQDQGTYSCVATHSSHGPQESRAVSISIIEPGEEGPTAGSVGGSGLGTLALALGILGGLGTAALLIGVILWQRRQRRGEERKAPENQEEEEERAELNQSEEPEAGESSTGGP

B1: chitinase 3-like 1 (CHI3L1) (natural protein)
chain: not shown
For the molecule B1, the Kd is about 16 nM.
